The source of these data is US12287344B2, “Fret-based method to measure seeding activity of misfolded protein species in biological samples” (MAX-DELBRÜCK-CENTRUM FÜR MOLEKULARE MEDIZIN IN DER …, priority 2018, dated 2025).

In the assay the test system is Ex1Q48-CyPet/-YPet. The assay can be described thus: FRASE assay: effect of added preformed fibrils/seeds on Ex1Q48-CyPet/-YPet polymerization. It counts as biochemical, human. To be noted: sonicated Ex1Q48 seeds (~1,250 kDa); sensor 1:1 mixture, 1.2 μM. The protocol:
(B) Effects of small, preformed Ex1Q48 seeds (1250 kDa) on Ex1Q48-CyPet and -YPet (1:1 mixture, total conc. 1.2 μM) co-aggregation. Data are mean±SEM (n=5).
(D) Effects of non-polyQ fibrils on Ex1Q48-CyPet and -YPet (1:1 mixture, total conc. 1.2 μM) co-aggregation. Data are mean±SD of triplicates.
Spontaneous Ex1Q48 aggregation was initiated by addition of 14 U PreScission protease (GE Healthcare) per nmol purified GST-Ex1Q48 fusion protein (2 μM). The aggregation reaction was performed in 50 mM Tris-HCl pH 7.4, 150 mM NaCl, 1 mM EDTA and 1 mM DTT at 25° C. and constant agitation (450 rpm) for 24 h. […]
Purified GST-Ex1Q48-CyPet and GST-Ex1Q48-YPet were diluted in aggregation buffer at an equimolar ratio to a final concentration of 1.2 μM (0.6 μM each) with 14 U PSP per nmol sensor proteins if not stated otherwise. […] For quantification of seeding-competent HTT species in tissue samples, the sensor-protein mixture was supplemented with up to 10% (v/v) tissue homogenate. Fluorescence signals were measured every 20 min following a 5 s pulse of vertical shaking with a Tecan M200 fluorescence plate reader at 25° C. for up to 48 h. CyPet donor fluorescence was measured at excitation (Ex): 435 nm/emission (Em): 475 nm; YPet acceptor fluorescence at Ex: 500 nm/Em: 530 nm; the FRET channel (DA) was recorded at Ex: 435 nm/Em: 530 nm. […]

B1: Ex1Q48 seeds: preformed recombinant mutant huntingtin exon 1 (48 glutamines) aggregates, sonicated, ~1,250 kDa (protein)
chain: MATLEKLMKAFESLKSFQQQQQQQQQQQQQQQQQQQQQQQQQQQQQQQQQQQQQQQQQQQQQQQQPPPPPPPPPPPQLPQPPPQAQPLLPQLQPPPPPPPPPPGPAAAEEPLHRP
For B1, the “threshold for detecting seeds in FRASE assay” value is recorded as ~60 fM.
